Test system: CC(C)(COP(=O)(O)OP(=O)(O)OC[C@H]1O[C@@H](n2cnc3c(N)ncnc32)[C@H](O)[C@@H]1OP(=O)(O)O)[C@@H](O)C(=O)NCCC(=O)NCCSC(=O)CCC(=O)O
Test: purified protein
Conditions: PLP

With “5-aminolevulinate synthase (cALAS) (Caulobacter vibrioides CB15)” the Km was 2.42 ± 0.32 µM.

— publication PMC6154995, “Heme-dependent Inactivation of 5-Aminolevulinate Synthase from Caulobacter crescentus” (Scientific Reports, 2018)
